The record followed here is patent US20180369322A1 (published 2018).

Some targets named below: human C5 (human, UniProt P01031 19-1676); dog C5 (dog); rabbit C5 (rabbit).
Holding throughout (assay): cell-based or functional assay
Experiment [1] has as its target cloned hERG potassium channel (human, UniProt Q12809 1-1159).

Numbered stars: 1 amine (or outer) side, 2 acyl side, 3 side chain; on linkers, the order of the positions; unused ones are H or OH. Bridge positions count the residues as written; N and C are the ends. Square brackets hold non-standard residues; d marks the D form. Primed or numbered codes have the meaning given here. Side chains are listed from the residue outwards. * marks the point of attachment. PEG24′ = polyethylene glycol unit with 24 repeats; Trp(7-aza) = N[C@@H](Cc1c[nH]c2ncccc12)C(=O)O; γGlu = O=C(O)[C@H](CCC(=O)[*:2])N[*:1]; Palmitoyl = CCCCCCCCCCCCCCCC(=O)*; NMeD = CN[C@@H](CC(=O)O)C(=O)O; Chg = N[C@H](C(=O)O)C1CCCCC1; Tle = CC(C)(C)[C@H](N)C(=O)O

Sequence of human C5 (P01031 19-1676 limits assumed): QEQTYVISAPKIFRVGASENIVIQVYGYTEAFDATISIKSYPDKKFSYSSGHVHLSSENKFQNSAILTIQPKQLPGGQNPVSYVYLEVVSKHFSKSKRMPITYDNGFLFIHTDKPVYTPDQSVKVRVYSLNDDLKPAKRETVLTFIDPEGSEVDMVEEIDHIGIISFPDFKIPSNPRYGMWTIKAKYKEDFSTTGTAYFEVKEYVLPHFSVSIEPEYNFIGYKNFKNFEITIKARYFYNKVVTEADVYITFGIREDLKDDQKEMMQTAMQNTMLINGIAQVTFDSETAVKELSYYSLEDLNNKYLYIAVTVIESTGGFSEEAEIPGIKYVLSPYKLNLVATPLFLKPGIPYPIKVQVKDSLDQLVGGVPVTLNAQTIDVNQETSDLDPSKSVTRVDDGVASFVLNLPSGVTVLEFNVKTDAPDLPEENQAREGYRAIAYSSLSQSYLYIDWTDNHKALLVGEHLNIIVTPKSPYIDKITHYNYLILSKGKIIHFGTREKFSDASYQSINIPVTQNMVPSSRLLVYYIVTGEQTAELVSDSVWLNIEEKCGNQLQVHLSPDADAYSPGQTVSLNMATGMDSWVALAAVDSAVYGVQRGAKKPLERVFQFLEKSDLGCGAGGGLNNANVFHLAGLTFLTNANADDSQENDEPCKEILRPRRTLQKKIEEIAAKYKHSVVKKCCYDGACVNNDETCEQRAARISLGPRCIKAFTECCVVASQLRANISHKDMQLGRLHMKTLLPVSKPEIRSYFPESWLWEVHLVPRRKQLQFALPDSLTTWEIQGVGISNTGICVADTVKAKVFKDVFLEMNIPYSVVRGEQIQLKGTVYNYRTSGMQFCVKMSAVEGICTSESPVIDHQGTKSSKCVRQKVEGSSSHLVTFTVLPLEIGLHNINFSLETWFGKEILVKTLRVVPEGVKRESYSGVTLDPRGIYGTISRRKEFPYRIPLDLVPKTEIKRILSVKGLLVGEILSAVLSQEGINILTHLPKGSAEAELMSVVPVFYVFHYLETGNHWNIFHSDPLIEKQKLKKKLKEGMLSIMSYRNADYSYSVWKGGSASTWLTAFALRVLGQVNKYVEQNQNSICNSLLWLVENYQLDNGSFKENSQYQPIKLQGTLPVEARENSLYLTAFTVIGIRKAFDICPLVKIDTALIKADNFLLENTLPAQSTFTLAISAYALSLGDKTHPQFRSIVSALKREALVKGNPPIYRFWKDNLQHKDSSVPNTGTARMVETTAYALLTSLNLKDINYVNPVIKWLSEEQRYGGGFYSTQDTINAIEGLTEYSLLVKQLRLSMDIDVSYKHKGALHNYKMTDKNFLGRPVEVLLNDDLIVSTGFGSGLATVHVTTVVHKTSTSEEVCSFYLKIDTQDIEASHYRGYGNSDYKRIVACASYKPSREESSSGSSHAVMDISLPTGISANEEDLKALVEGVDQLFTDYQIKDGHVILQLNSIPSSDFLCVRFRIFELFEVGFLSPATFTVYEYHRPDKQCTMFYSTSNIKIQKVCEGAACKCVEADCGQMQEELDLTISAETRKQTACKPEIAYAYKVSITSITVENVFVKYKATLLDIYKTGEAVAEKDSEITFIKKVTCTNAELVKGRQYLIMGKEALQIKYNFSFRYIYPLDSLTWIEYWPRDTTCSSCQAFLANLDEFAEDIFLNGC
Sequence of dog C5 (dog) (P01031 whole entry): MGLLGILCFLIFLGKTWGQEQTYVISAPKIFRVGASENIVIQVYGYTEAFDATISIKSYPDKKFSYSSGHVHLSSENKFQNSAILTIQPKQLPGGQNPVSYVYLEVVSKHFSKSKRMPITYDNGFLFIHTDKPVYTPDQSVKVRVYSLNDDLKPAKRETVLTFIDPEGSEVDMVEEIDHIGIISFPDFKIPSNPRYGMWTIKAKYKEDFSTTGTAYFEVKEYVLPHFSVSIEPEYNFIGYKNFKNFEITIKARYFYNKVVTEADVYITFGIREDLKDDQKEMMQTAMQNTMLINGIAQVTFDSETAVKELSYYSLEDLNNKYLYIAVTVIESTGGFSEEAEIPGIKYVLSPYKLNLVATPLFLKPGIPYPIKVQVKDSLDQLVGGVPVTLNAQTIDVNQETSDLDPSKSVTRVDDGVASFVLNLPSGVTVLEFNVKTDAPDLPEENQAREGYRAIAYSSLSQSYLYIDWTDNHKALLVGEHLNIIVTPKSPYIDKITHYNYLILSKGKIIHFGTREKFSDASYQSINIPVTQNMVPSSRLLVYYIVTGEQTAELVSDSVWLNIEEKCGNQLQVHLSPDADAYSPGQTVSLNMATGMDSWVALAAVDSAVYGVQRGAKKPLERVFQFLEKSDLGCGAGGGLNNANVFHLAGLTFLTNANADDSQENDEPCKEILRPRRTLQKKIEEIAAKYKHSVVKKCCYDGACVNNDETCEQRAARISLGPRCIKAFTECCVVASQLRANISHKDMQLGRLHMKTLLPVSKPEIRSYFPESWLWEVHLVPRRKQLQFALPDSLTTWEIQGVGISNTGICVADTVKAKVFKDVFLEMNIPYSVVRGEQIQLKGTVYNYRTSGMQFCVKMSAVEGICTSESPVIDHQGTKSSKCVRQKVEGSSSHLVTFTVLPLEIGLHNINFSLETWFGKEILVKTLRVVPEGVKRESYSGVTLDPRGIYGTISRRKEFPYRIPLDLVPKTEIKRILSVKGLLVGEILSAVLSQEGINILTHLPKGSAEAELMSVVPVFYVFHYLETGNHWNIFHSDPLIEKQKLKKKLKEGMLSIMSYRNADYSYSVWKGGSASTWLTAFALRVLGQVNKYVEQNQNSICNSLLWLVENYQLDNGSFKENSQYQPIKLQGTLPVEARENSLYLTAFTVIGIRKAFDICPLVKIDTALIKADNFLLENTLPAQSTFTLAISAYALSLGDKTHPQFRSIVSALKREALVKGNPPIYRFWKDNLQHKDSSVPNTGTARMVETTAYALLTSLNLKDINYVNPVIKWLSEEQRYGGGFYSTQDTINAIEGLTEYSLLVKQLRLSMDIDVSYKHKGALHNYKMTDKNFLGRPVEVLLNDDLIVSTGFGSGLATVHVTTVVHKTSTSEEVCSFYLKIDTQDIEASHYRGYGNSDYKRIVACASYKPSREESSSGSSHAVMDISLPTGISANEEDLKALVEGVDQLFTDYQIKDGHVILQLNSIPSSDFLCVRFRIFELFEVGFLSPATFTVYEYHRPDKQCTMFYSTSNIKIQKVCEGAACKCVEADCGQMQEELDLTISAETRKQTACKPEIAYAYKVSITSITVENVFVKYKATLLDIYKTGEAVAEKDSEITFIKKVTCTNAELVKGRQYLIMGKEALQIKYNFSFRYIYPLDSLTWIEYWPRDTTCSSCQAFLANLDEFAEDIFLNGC
Sequence of rabbit C5 (rabbit) (P01031 whole entry): as above
Sequence of cloned hERG potassium channel (Q12809 whole entry): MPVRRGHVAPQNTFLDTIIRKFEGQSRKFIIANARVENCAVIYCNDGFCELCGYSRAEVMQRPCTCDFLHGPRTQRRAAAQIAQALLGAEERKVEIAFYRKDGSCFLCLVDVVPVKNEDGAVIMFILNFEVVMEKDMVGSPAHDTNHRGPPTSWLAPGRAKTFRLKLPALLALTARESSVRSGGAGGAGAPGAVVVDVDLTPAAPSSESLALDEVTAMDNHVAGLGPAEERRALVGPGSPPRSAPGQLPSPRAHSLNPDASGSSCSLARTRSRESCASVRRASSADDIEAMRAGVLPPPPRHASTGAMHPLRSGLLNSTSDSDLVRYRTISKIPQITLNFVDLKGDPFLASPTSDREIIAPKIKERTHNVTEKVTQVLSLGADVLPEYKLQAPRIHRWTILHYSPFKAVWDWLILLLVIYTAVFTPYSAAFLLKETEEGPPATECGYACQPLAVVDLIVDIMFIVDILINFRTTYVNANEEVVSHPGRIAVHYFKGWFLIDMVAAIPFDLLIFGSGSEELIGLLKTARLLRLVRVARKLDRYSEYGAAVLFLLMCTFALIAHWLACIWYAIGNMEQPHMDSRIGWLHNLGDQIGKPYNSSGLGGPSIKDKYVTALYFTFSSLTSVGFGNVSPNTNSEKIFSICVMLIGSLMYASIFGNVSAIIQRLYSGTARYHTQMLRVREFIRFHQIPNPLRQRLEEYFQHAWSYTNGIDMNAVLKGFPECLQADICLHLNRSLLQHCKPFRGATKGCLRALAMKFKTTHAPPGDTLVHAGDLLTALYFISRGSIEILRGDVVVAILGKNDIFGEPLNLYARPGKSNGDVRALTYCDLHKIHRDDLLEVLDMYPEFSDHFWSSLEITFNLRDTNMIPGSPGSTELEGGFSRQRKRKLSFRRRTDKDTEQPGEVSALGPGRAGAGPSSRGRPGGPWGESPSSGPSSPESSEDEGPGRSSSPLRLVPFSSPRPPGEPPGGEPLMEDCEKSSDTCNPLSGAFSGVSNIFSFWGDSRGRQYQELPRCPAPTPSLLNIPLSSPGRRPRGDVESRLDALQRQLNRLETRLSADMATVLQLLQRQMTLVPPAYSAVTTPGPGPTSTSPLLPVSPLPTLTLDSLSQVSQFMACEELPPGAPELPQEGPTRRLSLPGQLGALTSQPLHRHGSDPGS

On to Ac-KVERFD[NMeD][Tle]Y[Trp(7-aza)]EYP[Chg]K([PEG24′-γGlu-Palmitoyl])-OH (lactam 1-6) [R5000], for which the “IC50 of inhibition of red blood cell hemolysis, human serum/plasma” value in the experiment with human C5 stood at 0.0066 µM. The “IC50 of inhibition of red blood cell hemolysis, dog serum/plasma” value with dog C5 is above 4.7 µM. Further, the “IC50 of inhibition of red blood cell hemolysis, rabbit serum/plasma” value in the experiment with rabbit C5 was above 67 µM. Besides, the “IC50 of inhibition of hERG potassium channel current (parallel patch-clamp, HEK293 cells)” value in experiment [1] was above 300 µM.
